From patent US20150203577A1 (Chugai, published 2015)

T1: mouse FcγRII (mouse, UniProt P08101 30-210)
T1 construct: Extracellular domain with C-terminal His tag, made in FreeStyle 293 cells; also called mFcγRII; mFcgRII
T1 sequence: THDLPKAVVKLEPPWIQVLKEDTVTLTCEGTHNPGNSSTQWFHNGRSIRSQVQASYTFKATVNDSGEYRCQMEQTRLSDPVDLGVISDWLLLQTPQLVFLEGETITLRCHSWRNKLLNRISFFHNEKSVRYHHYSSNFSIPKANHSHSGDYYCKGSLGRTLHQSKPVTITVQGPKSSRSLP

T2: mouse FcγRIII (mouse, UniProt P08508 31-215)
T2 construct: Extracellular domain with C-terminal His tag, made in FreeStyle 293 cells; also called mFcγRIII; mFcgRIII
T2 chain: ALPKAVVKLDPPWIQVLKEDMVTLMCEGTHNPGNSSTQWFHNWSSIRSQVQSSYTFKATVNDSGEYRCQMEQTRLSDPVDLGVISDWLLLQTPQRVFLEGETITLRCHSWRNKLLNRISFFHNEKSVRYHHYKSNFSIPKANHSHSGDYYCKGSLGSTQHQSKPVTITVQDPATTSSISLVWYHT


What was measured:
mouse FcγRII [1] = target: T1, mouse FcγRII; assay: SPR (Biacore), antibody captured on Protein L
mouse FcγRIII [2] = target: T2, mouse FcγRIII; assay: SPR (Biacore), antibody captured on Protein L
mouse FcγRII [3] = target: T1, mouse FcγRII; assay: SPR (Biacore), KD of H237-mIgG1/MRAL-k0 (same run) / KD of variant
Procedure: (§1) Each altered antibody was analyzed for its interaction with each Fcγ receptor prepared above using Biacore T100 (GE Healthcare Japan Corp.), Biacore T200 (GE Healthcare Japan Corp.), Biacore A100, or Biacore 4000. The running buffer used was HBS-EP+ (GE Healthcare Japan Corp.). The assay temperature was set to 25° C. The sensor chips used were chips prepared by immobilizing Protein L (ACTIGEN or BioVision) onto Series S Sensor Chip CM5 (GE Healthcare Japan Corp.) or Series S Sensor Chip CM4 (GE Healthcare Japan Corp.) by the amine coupling method.
(§2) In order to calculate the KD value of each altered antibody for FcγR, kinetic analysis was conducted according to the following method: first, the antibody of interest was captured onto any of these chips and allowed to interact with mFcγR diluted with a running buffer. For the obtained sensorgram, the assay results were globally fit into the 1:1 Langmuir binding model using Biacore Evaluation Software to calculate an association rate constant ka (L/mol/s) and a dissociation rate constant kd (1/s). From these values, the dissociation constant KD (mol/L) was calculated.

mouse FcγRIII [4] = target: T2, mouse FcγRIII; assay: as above
Procedure: as §1, §2

Binder	Kd (mouse FcγRII [1]) [µM]	Kd (mouse FcγRIII [2]) [µM]	relative mFcγRII-binding activity (mIgG1 = 1) (mouse FcγRII [3]) [fold]	relative mFcγRIII-binding activity (mIgG1 = 1) (mouse FcγRIII [4]) [fold]
H237-MB658/MRAL-k0 (antibody, mouse IgG1, kappa, copies: 2 + 2) heavy: QVQLQESGPGLVKPSETLSLTCAVSGHSISHDHAWSWVRQPPGEGLEWIGFISYSGITNYNPSLQGRVTISRDNSKNTLYLQMNSLRAEDTAVYYCARSLARTTAMDYWGEGTLVTVSSAKTTPPSVYPLAPGSAAQTNSMVTLGCLVKGYFPEPVTVTWNSGSLSSGVHTFPAVLQSDLYTLSSSVTVPSSTWPSETVTCNVAHPASSTKVDKKIVPRDCGCKPCICQPNEVEFVFIFPPKPKDVLTITLTPKVTCVVVDISKDDPEVQFSWFVDDVEVHTAQTQPREEQFNSTFRSVSELPIMHQDWLNGKEFKCRVNSAAFPAPIEKTISKTKGRPKAPQVYTIPPPKEQMAKDKVSLTCMITDFFPEDITVEWQWNGQPAENYKNTQPIMDTDGSYFVYSKLNVQKSNWEAGNTFTCSVLHEGLHNHHTEKSLSHSPGK light: not shown	0.415	4.88	0.56	0.07
H237-MB692/MRAL-k0 (antibody, mouse IgG1, kappa, copies: 2 + 2) heavy: QVQLQESGPGLVKPSETLSLTCAVSGHSISHDHAWSWVRQPPGEGLEWIGFISYSGITNYNPSLQGRVTISRDNSKNTLYLQMNSLRAEDTAVYYCARSLARTTAMDYWGEGTLVTVSSAKTTPPSVYPLAPGSAAQTNSMVTLGCLVKGYFPEPVTVTWNSGSLSSGVHTFPAVLQSDLYTLSSSVTVPSSTWPSETVTCNVAHPASSTKVDKKIVPRDCGCKPCICEPPEVEYVFIFPPKPKDVLTITLTPKVTCVVVDISKDDPEVQFSWFVDDVEVHTAQTQPREEQFNSTFRSVSELPIMHQDWLNGKEFKCRVNSAAFPAPIEKTISKTKGRPKAPQVYTIPPPKEQMAKDKVSLTCMITDFFPEDITVEWQWNGQPAENYKNTQPIMDTDGSYFVYSKLNVQKSNWEAGNTFTCSVLHEGLHNHHTEKSLSHSPGK light: not shown	0.186	4.44	1.75	0.12
H237-MB691/MRAL-k0 (antibody, mouse IgG1, kappa, copies: 2 + 2) heavy: QVQLQESGPGLVKPSETLSLTCAVSGHSISHDHAWSWVRQPPGEGLEWIGFISYSGITNYNPSLQGRVTISRDNSKNTLYLQMNSLRAEDTAVYYCARSLARTTAMDYWGEGTLVTVSSAKTTPPSVYPLAPGSAAQTNSMVTLGCLVKGYFPEPVTVTWNSGSLSSGVHTFPAVLQSDLYTLSSSVTVPSSTWPSETVTCNVAHPASSTKVDKKIVPRDCGCKPCICEVAEVEYVFIFPPKPKDVLTITLTPKVTCVVVDISKDDPEVQFSWFVDDVEVHTAQTQPREEQFNSTFRSVSELPIMHQDWLNGKEFKCRVNSAAFPAPIEKTISKTKGRPKAPQVYTIPPPKEQMAKDKVSLTCMITDFFPEDITVEWQWNGQPAENYKNTQPIMDTDGSYFVYSKLNVQKSNWEAGNTFTCSVLHEGLHNHHTEKSLSHSPGK light: not shown	0.559	7.18	0.58	0.07
H237-MB694/MRAL-k0 (antibody, mouse IgG1, kappa, copies: 2 + 2) heavy: QVQLQESGPGLVKPSETLSLTCAVSGHSISHDHAWSWVRQPPGEGLEWIGFISYSGITNYNPSLQGRVTISRDNSKNTLYLQMNSLRAEDTAVYYCARSLARTTAMDYWGEGTLVTVSSAKTTPPSVYPLAPGSAAQTNSMVTLGCLVKGYFPEPVTVTWNSGSLSSGVHTFPAVLQSDLYTLSSSVTVPSSTWPSETVTCNVAHPASSTKVDKKIVPRDCGCKPCICEDPEVEYVFIFPPKPKDVLTITLTPKVTCVVVDISKDDPEVQFSWFVDDVEVHTAQTQPREEQFNSTFRSVSELPIMHQDWLNGKEFKCRVNSAAFPAPIEKTISKTKGRPKAPQVYTIPPPKEQMAKDKVSLTCMITDFFPEDITVEWQWNGQPAENYKNTQPIMDTDGSYFVYSKLNVQKSNWEAGNTFTCSVLHEGLHNHHTEKSLSHSPGK light: not shown	0.598	16.4	0.54	0.03
H237-MB688/MRAL-k0 (antibody, mouse IgG1, kappa, copies: 2 + 2) heavy: QVQLQESGPGLVKPSETLSLTCAVSGHSISHDHAWSWVRQPPGEGLEWIGFISYSGITNYNPSLQGRVTISRDNSKNTLYLQMNSLRAEDTAVYYCARSLARTTAMDYWGEGTLVTVSSAKTTPPSVYPLAPGSAAQTNSMVTLGCLVKGYFPEPVTVTWNSGSLSSGVHTFPAVLQSDLYTLSSSVTVPSSTWPSETVTCNVAHPASSTKVDKKIVPRDCGCKPCICTVYEVENVFIFPPKPKDVLTITLTPKVTCVVVDISKDDPEVQFSWFVDDVEVHTAQTQPREEQFNSTFRSVSELPIMHQDWLNGKEFKCRVNSAAFPAPIEKTISKTKGRPKAPQVYTIPPPKEQMAKDKVSLTCMITDFFPEDITVEWQWNGQPAENYKNTQPIMDTDGSYFVYSKLNVQKSNWEAGNTFTCSVLHEGLHNHHTEKSLSHSPGK light: not shown	0.513	6.3	0.63	0.08
H237-MB690/MRAL-k0 (antibody, mouse IgG1, kappa, copies: 2 + 2) heavy: QVQLQESGPGLVKPSETLSLTCAVSGHSISHDHAWSWVRQPPGEGLEWIGFISYSGITNYNPSLQGRVTISRDNSKNTLYLQMNSLRAEDTAVYYCARSLARTTAMDYWGEGTLVTVSSAKTTPPSVYPLAPGSAAQTNSMVTLGCLVKGYFPEPVTVTWNSGSLSSGVHTFPAVLQSDLYTLSSSVTVPSSTWPSETVTCNVAHPASSTKVDKKIVPRDCGCKPCICTPAEVEYVFIFPPKPKDVLTITLTPKVTCVVVDISKDDPEVQFSWFVDDVEVHTAQTQPREEQFNSTFRSVSELPIMHQDWLNGKEFKCRVNSAAFPAPIEKTISKTKGRPKAPQVYTIPPPKEQMAKDKVSLTCMITDFFPEDITVEWQWNGQPAENYKNTQPIMDTDGSYFVYSKLNVQKSNWEAGNTFTCSVLHEGLHNHHTEKSLSHSPGK light: not shown	0.204	2.71	1.6	0.19
H237-MB685/MRAL-k0 (antibody, mouse IgG1, kappa, copies: 2 + 2) heavy: QVQLQESGPGLVKPSETLSLTCAVSGHSISHDHAWSWVRQPPGEGLEWIGFISYSGITNYNPSLQGRVTISRDNSKNTLYLQMNSLRAEDTAVYYCARSLARTTAMDYWGEGTLVTVSSAKTTPPSVYPLAPGSAAQTNSMVTLGCLVKGYFPEPVTVTWNSGSLSSGVHTFPAVLQSDLYTLSSSVTVPSSTWPSETVTCNVAHPASSTKVDKKIVPRDCGCKPCICTPAEVELVFIFPPKPKDVLTITLTPKVTCVVVDISKDDPEVQFSWFVDDVEVHTAQTQPREEQFNSTFRSVSELPIMHQDWLNGKEFKCRVNSAAFPAPIEKTISKTKGRPKAPQVYTIPPPKEQMAKDKVSLTCMITDFFPEDITVEWQWNGQPAENYKNTQPIMDTDGSYFVYSKLNVQKSNWEAGNTFTCSVLHEGLHNHHTEKSLSHSPGK light: not shown	0.537	5.49	0.61	0.09
H237-MB700/MRAL-k0 (antibody, mouse IgG1, kappa, copies: 2 + 2) heavy: QVQLQESGPGLVKPSETLSLTCAVSGHSISHDHAWSWVRQPPGEGLEWIGFISYSGITNYNPSLQGRVTISRDNSKNTLYLQMNSLRAEDTAVYYCARSLARTTAMDYWGEGTLVTVSSAKTTPPSVYPLAPGSAAQTNSMVTLGCLVKGYFPEPVTVTWNSGSLSSGVHTFPAVLQSDLYTLSSSVTVPSSTWPSETVTCNVAHPASSTKVDKKIVPRDCGCKPCICEVPEEEYVFIFPPKPKDVLTITLTPKVTCVVVDISKDDPEVQFSWFVDDVEVHTAQTQPREEQFNSTFRSVSELPIMHQDWLNGKEFKCRVNSAAFPAPIEKTISKTKGRPKAPQVYTIPPPKEQMAKDKVSLTCMITDFFPEDITVEWQWNGQPAENYKNTQPIMDTDGSYFVYSKLNVQKSNWEAGNTFTCSVLHEGLHNHHTEKSLSHSPGK light: not shown	0.582	11.6	0.56	0.04
H237-MB693/MRAL-k0 (antibody, mouse IgG1, kappa, copies: 2 + 2) heavy: QVQLQESGPGLVKPSETLSLTCAVSGHSISHDHAWSWVRQPPGEGLEWIGFISYSGITNYNPSLQGRVTISRDNSKNTLYLQMNSLRAEDTAVYYCARSLARTTAMDYWGEGTLVTVSSAKTTPPSVYPLAPGSAAQTNSMVTLGCLVKGYFPEPVTVTWNSGSLSSGVHTFPAVLQSDLYTLSSSVTVPSSTWPSETVTCNVAHPASSTKVDKKIVPRDCGCKPCICTDYEVEYVFIFPPKPKDVLTITLTPKVTCVVVDISKDDPEVQFSWFVDDVEVHTAQTQPREEQFNSTFRSVSELPIMHQDWLNGKEFKCRVNSAAFPAPIEKTISKTKGRPKAPQVYTIPPPKEQMAKDKVSLTCMITDFFPEDITVEWQWNGQPAENYKNTQPIMDTDGSYFVYSKLNVQKSNWEAGNTFTCSVLHEGLHNHHTEKSLSHSPGK light: not shown	0.267	5.41	1.22	0.09
